Experimental findings from the supplement of paper PMC9170038 are described below.

In this series the test system is MS2 coat protein. Briefly: apparent KD of MS2 coat protein; designed switch direction (-1 OFF switch, 1 ON switch): 1; higher = weaker reporter binding. In outline: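 Designed RNA switches with common flanks were transcribed on Illumina chips by stalled E. coli RNA polymerase and titrated with SNAP-549-labelled MS2 coat protein, from 0.7 or 1.5 nM doubling to 3 µM, in Tris-HCl pH 7.5 buffer with KCl, MgCl2, BSA, DTT, tRNA and Tween-20. Steps lasted 0.8–1.5 h (lowest) to 10–20 min (highest). Titrations ran without input, with 200 uM small-molecule ligand, or with an oligonucleotide input. Normalised cluster fluorescence was curve-fitted, and apparent KD is the per-design median over clusters.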

Where [1] appears, read: Eterna round: R95, input ligand: FMN 200 uM.
[2] abbreviates: Eterna round: R95, input ligand: microRNA oligo, concentration not stated.
Where [3] appears, read: Eterna round: R95, input ligand: none.
[4] abbreviates: input ligand: microRNA oligo, concentration not stated.

For the sequence “GAGAAUCUAUCUCAGGAUAUCAUGUCAAAGACAUGAGGAUCACCCAUGUACCAGGAAACUGGUUAUGAGAAGGGAGAUAGAUUCG [Mat - Same State 2 - Mod - D36] (puzzle: Same State 2)”, the “apparent KD of MS2 coat protein” value by setting is: under setting [1], 86.1 nM; under setting [2], 111 nM; under setting [3], 40.1 nM.

In the case of “GAGAGACAUGAGGAUCACCCAUGUAGAAUAGAACAAGGAUAUGUGGAAGGCGGAGGAGAGACAGAAGGUGUAGGAA [JR_SS1_Sub054] (puzzle: Same State 1)”, the “apparent KD of MS2 coat protein” value runs as follows: under setting [1], 62.5 nM; under setting [2], 76.8 nM; under setting [3], 84.9 nM.

Regarding “GAGAGAGGAAGCGAGGAUAUCGUGUGGAGUACAUGAGGAUCACCCAUGUUGUAGGUAGAGGUAGGCGAGAAGGCGCAGGAGAGGU [JR_SS2_Sub097] (puzzle: Same State 2)”, the “apparent KD of MS2 coat protein” value under setting [1] amounted to 34 nM, the “apparent KD of MS2 coat protein” value under setting [2] turned out to be 41.5 nM and the “apparent KD of MS2 coat protein” value under setting [3] came to 58.1 nM.

“GAGAGAGGGCGAGGAUAUUCGGUGAUAAUGAUGGAAGAAGGCGCUGACAUGAGGAUCACCCAUGUGGGAAUAAUCCAGAGAGAG [Parity 15 - Jieux - Same State NG 1] (Eterna round: R96, puzzle: Same State NG 1)”: the “apparent KD of MS2 coat protein” value was 494 nM (input ligand: FMN 200 uM), 130 nM under setting [4] and 237 nM (input ligand: none).

As to “GAGGGACAGACCAACAUGAGGAUCACCCAUGUCCUCGCAGUUCAGGAUAUCUGGAGGAAGAAGAAAGAGAAGGGAAGGUGAACC [AK SSNG3-V2-35] (Eterna round: R96, puzzle: Same State NG 3)”, the “apparent KD of MS2 coat protein” value runs as follows: (input ligand: FMN 200 uM) 312 nM; under setting [4], 65.3 nM; (input ligand: none) 120 nM.

In the case of “GAGUAGUUGAAAGGAUAUUGAUUGUUAUAGGAUCAAGAAGGUUCUAACAUGAGGAUCACCCAUGUAGGACUAUUCCUGUGUAUC [Parity 83 - Jieux - Same State NG 1] (Eterna round: R96, puzzle: Same State NG 1)”, the “apparent KD of MS2 coat protein” value is, setting by setting: (input ligand: FMN 200 uM) 11 nM; under setting [4], 8.78 nM; (input ligand: none) 12.5 nM.

Consider “GAGUAGUUGGGAGGAUAUCGAUUGUUAUAGAAUCGAGAAGGUCCUAACAUGAGGAUCACCCAUGUAGGACUAUUCCUGUGUAUC [Parity 75 - Jieux - Same State NG 1] (Eterna round: R96, puzzle: Same State NG 1)”, for which the “apparent KD of MS2 coat protein” value is, setting by setting: (input ligand: FMN 200 uM) 9.81 nM; under setting [4], 7.5 nM; (input ligand: none) 10.6 nM.

Turning to “GAGUGGCAGUUAGGAUAUAUAGUGAUAAUGACAAUAGAAGGAACAGACAUGAGGAUCACCCAUGUAGGACUAAUCCAGAGAGAG [Parity 36 - Jieux - Same State NG 1] (Eterna round: R96, puzzle: Same State NG 1)”, the “apparent KD of MS2 coat protein” value (input ligand: FMN 200 uM) was 32.1 nM, the “apparent KD of MS2 coat protein” value under setting [4] amounted to 22.5 nM and the “apparent KD of MS2 coat protein” value (input ligand: none) turned out to be 30.2 nM.

For “GAGUGGUGGAAAGGAUAUGCAUUGUUAUUCACUGUAGAAGGUUCUAACAUGAGGAUCACCCAUGUAGGACUAUUCCUGUGUUUU [Parity 59 - Jieux - Same State NG 1] (Eterna round: R96, puzzle: Same State NG 1)”, the “apparent KD of MS2 coat protein” value under setting [4] is 10.2 nM.

With “GAGUGUGAAUAAGGAUAUAUGAGAGAGUGAGUAAUAGAAGGUAUACAAACAUGAGACAUGAGGAUCACCCAUGUAUCACCCAUG [Something that seems to work] (Eterna round: R96, puzzle: Same State NG 1)”, the “apparent KD of MS2 coat protein” value under setting [4] is 14.5 nM.

For “GAUCGUUUGAUAGGAUAUCGCUAUACAUGAGGAUCACCCAUGUUUACCACGCUGGUUUUUCGUACCGAGAAGGAUUCUGAUGAU [JL JR sub007 mod 5] (Eterna round: R96, puzzle: Same State NG 2)”, the “apparent KD of MS2 coat protein” value by setting is: (input ligand: FMN 200 uM) 31.4 nM; under setting [4], 24.4 nM; (input ligand: none) 35.4 nM.

With “GCAACUCGUAGAGGAUAUGUCCAGCAAGUAUCACAUGAGGAUCACCCAUGUUCAGCUCUACACCUGCAGAAGGCUAUUAGUGCA [Eternabot solution 46] (Eterna round: R96, puzzle: Same State NG 2)”, the “apparent KD of MS2 coat protein” value is, setting by setting: (input ligand: FMN 200 uM) 15.8 nM; under setting [4], 13.6 nM; (input ligand: none) 17.2 nM.

Turning to “GCACUCCUAGGAGCUGCGACAUGAGGAUCACCCAUGUAAUCACAGGAUAUGCGAGUCCGAAUUUUGCAGAAGGGUGAUAAGAAC [Biesanarre] (Eterna round: R96, puzzle: Same State NG 3)”, the “apparent KD of MS2 coat protein” value came to 404 nM (input ligand: FMN 200 uM), 52.3 nM under setting [4] and 45.7 nM (input ligand: none).

Take “GCAGAACAUGAGGAUCACCCAUGUCUCAAAUAUUGAGGAUAUGGACACGGUAUAUCCGAACCAGAAGGCGAACUGC [SS1 Teenbexe 18] (puzzle: Same State 1)”: the “apparent KD of MS2 coat protein” value by setting is: under setting [1], 66.1 nM; under setting [2], 74.3 nM; under setting [3], 53.3 nM.

In the case of “GCAGUACAUGAGGAUCACCCAUGUCUCUAAAGUCGAGGAUAUGGGCAGGUUAUAUCCGAACCAGAAGGCGAGCUGC [SS1 Teenbexe 12] (puzzle: Same State 1)”, the “apparent KD of MS2 coat protein” value was 81.5 nM under setting [1], 301 nM under setting [2] and 339 nM under setting [3].

As to “GCAGUGGCGGUAGGAUAUCUAGGAUAUGGGAAAGACUAAGUCUGUAGGUCACCUAACCCAGAAGGAGAGAAGGACCCUGUAAGG [pwkr ssNG2 2FMN + F9.21] (Eterna round: R96, puzzle: Same State NG 2)”, the “apparent KD of MS2 coat protein” value runs as follows: (input ligand: FMN 200 uM) 348 nM; under setting [4], 74.7 nM; (input ligand: none) 222 nM.

On to “GCCAACUCAUGAGGAUAUGGCACCUUAAUGGUGCCAGAAGGCAUGUCUAUUGACAUGAGGAUCACCCAUGUAUUAUUGUUGGCA [Fiskers NG1ss - 25] (Eterna round: R96, puzzle: Same State NG 1)”, for which the “apparent KD of MS2 coat protein” value (input ligand: FMN 200 uM) stood at 100 nM, the “apparent KD of MS2 coat protein” value under setting [4] came to 241 nM and the “apparent KD of MS2 coat protein” value (input ligand: none) was 821 nM.

Consider “GCCGCACAUGAGGAUCACCCAUGUAAUUACAUGGGAGGAUAUCAGUGCUCGAAAGAGCACUGAGAAGGCCUGUGGC [SS1 - Omei A v2] (puzzle: Same State 1)”, for which the “apparent KD of MS2 coat protein” value is, setting by setting: under setting [1], 399 nM; under setting [2], 31.9 nM; under setting [3], 39 nM.

Consider “GCCGCGUUUCGCGCCUACAUGAGGAUCACCCAUGUAUGUCGGCAGGAUAUCGUUUGCUUUGCAAACGAGAAGGGCUGUUGUGGC [salish99_SSNG3_R04_011] (Eterna round: R96, puzzle: Same State NG 3)”, for which the “apparent KD of MS2 coat protein” value is 13.4 nM (input ligand: FMN 200 uM), 9.04 nM under setting [4] and 14.4 nM (input ligand: none).

For the sequence “GCCGCGUUUCGCGCCUACAUGAGGAUCACCCAUGUUUGUAGGCAGGAUAUCGCUCGCUUUGCGGGCGAGAAGGGCUGUUGUGGC [salish99_SSNG3_R04_019] (Eterna round: R96, puzzle: Same State NG 3)”, the “apparent KD of MS2 coat protein” value runs as follows: (input ligand: FMN 200 uM) 45.8 nM; under setting [4], 41.8 nM; (input ligand: none) 54.4 nM.

Turning to “GCCGUAUACAUGAGGAUCACCCAUGUUGACGCGAGAGUGGAUGAGGAUAUCGAUGGGUUUCCCGUCGAGAAGGCGUGGGUCGGC [JL SSNG3 3.00] (Eterna round: R96, puzzle: Same State NG 3)”, the “apparent KD of MS2 coat protein” value is, setting by setting: (input ligand: FMN 200 uM) 49.8 nM; under setting [4], 30.5 nM; (input ligand: none) 46.1 nM.

Turning to “GCGAAACAUGAGGAUCACCCAUGUAUGGCGGGCACAGGAUAUCGUGGUUCGCUCAUACUACGAGAAGGGUGAAAAG [Orqu] (puzzle: Same State 1)”, the “apparent KD of MS2 coat protein” value reads like this: under setting [1], 24.1 nM; under setting [2], 18.4 nM; under setting [3], 16.9 nM.

In the case of “GCGAAAGCGGUAGGAUAUCUAGGAUAUGGGAAAGACUAAGUCUGUAGGUCACCUAACCCAGAAGGAGAGAAGGACAGGGAAACC [pwkr ssNG2 2FMN + F9.34] (Eterna round: R96, puzzle: Same State NG 2)”, the “apparent KD of MS2 coat protein” value is 38.8 nM (input ligand: FMN 200 uM), 28.9 nM under setting [4] and 22.1 nM (input ligand: none).

Consider “GCGAAAUGAUGAAACAUGAGGAUCACCCAUGUAACGAGAGAUGAGGAUAUCGGAAAGGGAGGAACCGAGAAGGCAUGGUCACGC [AK SSNG3-V2-26.1] (Eterna round: R96, puzzle: Same State NG 3)”, for which the “apparent KD of MS2 coat protein” value runs as follows: (input ligand: FMN 200 uM) 34.5 nM; under setting [4], 37.1 nM; (input ligand: none) 48.2 nM.

Take “GCGAGCGUACUUGCAACAUGAGGAUCACCCAUGUUAACUGGACAGGAUAUGGUACCGUUUCGGUACCAGAAGGGUUCACUCAUG [JL SSNG3 3.59] (Eterna round: R96, puzzle: Same State NG 3)”: the “apparent KD of MS2 coat protein” value under setting [4] stood at 64.2 nM.

With “GCGAGCGUACUUGCAGACAUGAGGAUCACCCAUGUAAAUGGGAAGGAUAUGGUACCGUUUCGGUACCAGAAGGUCCUAAGUGAG [JL SSNG3 1.49] (Eterna round: R96, puzzle: Same State NG 3)”, the “apparent KD of MS2 coat protein” value (input ligand: FMN 200 uM) is 129 nM, the “apparent KD of MS2 coat protein” value under setting [4] was 702 nM and the “apparent KD of MS2 coat protein” value (input ligand: none) was determined as 646 nM.

For “GCGAGCGUACUUGCUACAUGAGGAUCACCCAUGUUAACUGGACAGGAUAUGGUACCGUUUCGGUACCAGAAGGGUUCAUCAUGU [JL SSNG3 3.68] (Eterna round: R96, puzzle: Same State NG 3)”, the “apparent KD of MS2 coat protein” value runs as follows: (input ligand: FMN 200 uM) 306 nM; under setting [4], 245 nM; (input ligand: none) 665 nM.
